B1: OAS1 (parent)
chain: LQLGEGVEFDVLPAFDALGQLTGG
B2: SLC19A2 (parent)
chain: FHHIPSTCQRVNGIKVQNGGIVTD

Variants of: B1
Test: protein stability index of a GFP-peptide fusion (GPS, HEK-293T) (PSI 1-6); higher = more stable
Settings: c terminus: a fixed tail appended
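Note: lentivirally expressed fusions sorted by FACS into six bins by GFP to DsRed ratio, PSI derived from sequencing read proportions per bin multiplied by bin number.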

Protein stability index of substitutions, site by site:
V11: W 1.16, C 2, P 2.3, L 1.96, S 2.59, M 2.33, N 3.33, A 1.91, E 2.95, I 1.49, R 2.54, K 2.72, F 1.59, H 2.83, Q 3.62, T 2.21
A14: N 1.86, S 1.55, D 1.67, H 1.58, Q 2.46, P 2.02, V 1.19, Y 1.53, K 1.61, G 1.88, T 2.34, I 1.48, C 1.37, R 1.29
A17: P 2.41, L 1.9, W 3.13, R 2.05, S 1.84, C 2.01, V 2.86, G 2.01, T 2.6, Y 2.48, H 1.76, I 1.53, F 3.94, M 2.14, N 2.28, D 2.14, Q 1.61
L12: M 3.1, W 1.13, F 1.54, N 2.99, G 2.69, T 2.4, R 2.69, E 3.98, P 2.48, Q 2.59, S 3.82, I 1.64, D 4.05, Y 1.72, K 2.94, V 2.24, H 3.08
L1: C 2.95, H 4.33, I 1.04, F 2.06, N 4.18, R 4.01, T 3.33, E 4.58, K 3.67, A 3.26, V 2.71, D 4.96, Y 2.31, G 4.46, M 2.57, S 3.65
P13: H 2.21, R 1.29, N 2.69, D 1.4, G 1.31, Y 2.03
L3: I 2.26, R 3.24, Y 3.37, E 4.56, P 4.01, Q 3.6, G 2.93, K 3.97, D 2.98, W 2.49, H 4.17, C 2.57, M 2.34, T 3.61, N 1.72, A 3.65, S 3.02, F 2.08, V 2.34
V7: N 2.46, L 3.26, K 2.27, D 2.04, S 2.11, F 1.8, C 1.34, I 2.84, Q 2.86, T 2.41, R 2.27, E 2.5, P 1.67, W 2.81, M 1.52, Y 1.55, H 2.9, A 2.33
G4: Q 2.75, H 2.25, N 2.16, V 1.7, T 2.28, C 1.38, K 2.8, I 1.88, W 1.65, S 1.4, R 1.78, P 2.36, E 3.05, Y 1.08, M 2.36, F 1.17
G6: T 1.55, N 2.25, C 1.83, Q 2.51, K 3, F 1.63, A 1.53, S 2.39, R 2.33, I 1.28, W 1.74, Y 1.3, P 2.94, H 2.8, D 1.88, E 2.38, M 2.01
D16: R 1.31, A 1.79, S 1.07, T 1.99, K 1.81, P 2.46, Q 2.29, H 2.26, I 3.52, C 1.34
D10: N 3, G 2.03, V 2.77, H 1.5, C 2.3, K 1.99, S 2, T 1.36, Q 1.8, F 1.64, P 2.53
F15: P 3.45, T 3.48, V 1.65, K 4.1, I 2.27, Y 1.47, E 3.57, M 1.96, W 1.22, A 2.92, D 3.12, G 3.56, S 2.73, H 3.1, L 2.48, C 1.86, R 2.74
Q2: E 3.58, N 2.41, T 1.61, P 3.18, G 1.74, D 2.84, I 2.81, M 3.19, A 3.5, C 1.04
E8: D 2.54, S 1.99, P 2.09, W 1.98, H 2.07, K 1.83, I 2.37, T 1.42, N 2.4, Q 1.67, Y 2.67, L 1.5
E5: Q 1.64, A 1.99, N 2.09, D 2.24, W 2.32, V 2.24, Y 1.14, G 2.63, K 2.09, T 2.05, P 1.93, L 1.02, H 1.68, M 1.15, C 1.25
F9: Q 3.84, M 2.88, S 4.03, C 2.37, P 3.64, H 4.18, E 4.37, K 3.69, I 1.65, D 3.88, N 4.57, R 3.67
L18: A 3.35, C 2.62, D 3.47, E 3.1, F 1.14

Variants of: B2
Test: as above
Settings: c terminus: a fixed tail appended

Protein stability index: each site, then its substitutions
G20: R 1.73, S 2.34, D 2.2, P 2.2, V 1.5, K 1.87, M 2.18, E 1.95, Q 1.8, N 2.29, T 1.76, H 2.19, C 1.8, F 1.65, L 1.64, I 1.9
T23: V 1.67, Q 2.44, A 2.4, R 4.73, W 1.45, K 2.11, S 2.18, Y 1.75, C 2.27, N 1.86, D 2.53, E 1.85, F 1.81, G 1.67, H 3.31, I 1.57, L 1.95, M 2.15, P 1.89
D24: Y 3.21, M 2.38, R 1.89, P 1.72, G 1.16, C 1.5, S 2.12, E 2.06, I 2.06, K 2.64, A 2.16, N 2.47, H 2.11, Q 1.94, T 1.7
V22: Y 1.47, H 2.01, L 2.2, G 1.56, N 2.23, F 3.33, E 1.84, K 1.77, W 1.91, T 2.52, I 1.73, M 1.52, C 1.61, R 2.19, A 2.44, D 2.42, P 2.62, Q 2.18, S 2.23
I21: P 1.6, S 1.85, Y 2.18, N 3.07, M 2.03, G 2.2, Q 2.16, K 3.06, D 2.24, F 1.83, R 2.43, H 2.09, T 2.19, A 2.46, C 1.79, E 2.15, L 1.61

Source: the supplement of paper PMC10567573
